According to article PMC6823927:
Non-standard residues stand in square brackets, D forms with d. No end group written: not given here. Dip = N[C@H](C(=O)O)C(c1ccccc1)c1ccccc1

Columns and labels:
[1] = target: 175Cys-IgG1 (meditope-enabled trastuzumab IgG1 with Ala175 of the heavy chain changed to cysteine); assay: disulfide conjugation, dye-antibody ratio
[2] = target: 175Cys-Fab (meditope-enabled trastuzumab Fab with Ala175 of the heavy chain changed to cysteine); assay: cross-linking

stoichiometry N [1] [dyes per IgG]	stoichiometry N (meditope per Fab) [2]	Binder
1.8		SQFD[Dip]CTRRLQSGGSK-Alexa647 [SQFDA(Ph)2…-Alexa647 meditope]
	1	SQFD[Dip]CTRRLQSGGSK [SQFDA(Ph)2… meditope]
